Molecular target: Rpb2 subunit of Komagataella phaffii RNA polymerase II (TAP-tagged) (Komagataella phaffii, UniProt F2QTX9 1-1227)
Experiment: cryo-EM structure

B1: Komagataella phaffii Rai1 (E213A/D215A), kpRai1(2A) (enzyme)
chain: MSKEKILPLAARSKKAMLRQPKQVAYFSRDLNYKTHPDRSNLSYYYLPDGDIDNSIDLSVGSKHFLLGDSVELSKLDPILLALKEIEKESGAKTKDRIITWRGIMRKLLTLPYDSEEDFVLDVVSFDGQLFIQFNVPYLKSKDVQKQGDTEFHKKLQFSGYKFEKMATLPKPWPECTRKEIDSRAKSKCNNIEQYGAIVRTGISRIKILIGGAVACTADYYDENDPLSRYIELKTTRTINQYKDMIAFEKKLFRTWAQCFLLGIPKIIYGFRDDNCILRTVEEFSTNDIPLMVKNNPLNEQPKKENCYMSSINFYGAVVEWLNESVKDDQVWKLSYAKRNRQYLVLKEVTDENEKQQIVDSAIPAWFKEWRSELRNSEGNI
B1: binds.
